In patent US6506379:

Experiments:
[1] = target: His6-flag-FKBP, no drug added (ethanol alone) (human); test: phage display affinity enrichment: FRAP(2015-2114) phagemids mixed with pBC control phagemids, 1 uM His6-flag-FKBP with ethanol alone, capture on Ni-NTA agarose, acid elution
[2] = target: His6-flag-FKBP in complex with FK506 (human); test: phage display affinity enrichment: FRAP(2015-2114) phagemids mixed with pBC control phagemids, 1 uM His6-flag-FKBP plus about 1 uM FK506, capture on Ni-NTA agarose, acid elution
Chain of His6-flag-FKBP in complex with FK506 (human) (chain, as listed by the source limits assumed): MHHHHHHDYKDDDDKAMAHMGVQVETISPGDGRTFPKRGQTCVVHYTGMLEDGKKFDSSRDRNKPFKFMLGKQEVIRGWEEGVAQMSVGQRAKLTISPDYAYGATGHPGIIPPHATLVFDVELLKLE

[3] = target: His6-flag-FKBP in complex with rapamycin (human); test: phage display affinity enrichment: FRAP(2015-2114) phagemids mixed with pBC control phagemids, 1 uM His6-flag-FKBP plus about 1 uM rapamycin, capture on Ni-NTA agarose, acid elution
Chain of His6-flag-FKBP in complex with rapamycin (human) (chain, as listed by the source limits assumed): as above

[4] = target: 1FRB-p65(361-550) (human) (UniProt P42345); test: cell-based or functional assay
Chain of 1FRB-p65(361-550) (human) (P42345 other isoform, or with tags, fused parts or gaps): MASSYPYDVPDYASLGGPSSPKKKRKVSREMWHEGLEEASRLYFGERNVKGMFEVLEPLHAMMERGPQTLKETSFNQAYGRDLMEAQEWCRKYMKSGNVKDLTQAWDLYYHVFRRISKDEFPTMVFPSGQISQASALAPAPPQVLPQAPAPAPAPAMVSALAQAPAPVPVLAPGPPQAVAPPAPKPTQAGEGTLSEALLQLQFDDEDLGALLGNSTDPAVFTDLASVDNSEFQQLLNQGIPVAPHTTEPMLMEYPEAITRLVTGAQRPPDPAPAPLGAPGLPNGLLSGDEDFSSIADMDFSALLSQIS

Chain of His6-flag-FKBP, no drug added (ethanol alone) (human) (chain, as listed by the source limits assumed): as the sequence (chain, as listed by the source limits assumed) above

## FRAP (amino acids 2015-2114) displayed on filamentous phagemid particles, from p-CANTAB-AP-FRAP(2015-2114) (from UniProt P03661 215-424)
[1]
  fold enrichment of FRAP phage compared to the starting mixture (carb/chlor cfu ratio): 1.5 fold
[2]
  fold enrichment of FRAP phage compared to the starting mixture (carb/chlor cfu ratio): 2.4 fold
[3]
  fold enrichment of FRAP phage compared to the starting mixture (carb/chlor cfu ratio): 271 fold

## ZFHD1-3FKBP in complex with rapamycin (from UniProt P62942 1-107)
[4]
  SEAP activity of the stable clone at 100 nM rapamycin, extended assay (mock transfected cells 47 units) (arbitrary fluorescence units): > 90000
  SEAP secretion, transiently transfected HT1080 cells (ZFHD1-site SEAP reporter); lowest rapamycin concentration with detectable SEAP: 0.5 nM
  SEAP secretion, transiently transfected HT1080 cells; rapamycin concentration at peak SEAP: 5 nM

## ZFHD1-3FKBP, no drug (from UniProt P62942 1-107)
[4]
  SEAP activity of the stable clone without rapamycin, extended assay (mock transfected cells 47 units) (arbitrary fluorescence units): 54
